Laboratory results reported in US20250188184A1.
Substitutions are numbered along the chain they refer to.

B1: CD3.104 (AC3433) (bispecific antibody, V domains shown)
VH: EVQLLESGGGIVQPGGSLKLSCAASGFTFNTYAMNWVRQAPGKGLEWVARIRSKYNNYATYYADSVKDRFTISRDDSKNTVYLQMNNLKTEDTAVYYCVRHENFGNSYVSWFAHWGQGTLVTVSS
VL: ELVVTQEPSLTVSPGGTVTLTCRSSNGAVTSSNYANWVQQKPGQAPRGLIGGTNKRAPGTPARFSGSLQGGKAALTLSGVQPEDEAVYYCALWYPNLWVFGGGTKLTVL
B2: CD3.106 (AC3435) (bispecific antibody, V domains shown)
VH: B1 VH
VL: B1 VL with Q69D
B3: CD3.107 (AC3436) (bispecific antibody, V domains shown)
VH: B1 VH
VL: B1 VL with L68S, Q69L
B4: CD3.108 (AC3437) (bispecific antibody, V domains shown)
VH: B1 VH
VL: B1 VL with L68K, Q69L
B5: CD3.109 (AC3438) (bispecific antibody, V domains shown)
VH: B1 VH
VL: B1 VL with L68N, Q69L
B6: CD3.110 (AC3439) (bispecific antibody, V domains shown)
VH: B1 VH
VL: B1 VL with L68T, Q69L
B7: CD3.105 (AC3434) (bispecific antibody, V domains shown)
VH: B1 VH
VL: B1 VL with Q69L, G70E

What follows are binders tested against CD3 (target of the Pool 1 CD3.23 screen) (assay: Octet, crude lysate).
Chain of CD3 (target of the Pool 1 CD3.23 screen) (P07766 23-126): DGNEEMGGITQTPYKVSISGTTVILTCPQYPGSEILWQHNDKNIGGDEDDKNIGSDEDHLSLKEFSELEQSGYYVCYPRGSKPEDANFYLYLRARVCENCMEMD

Kd [nM]	Binder
4.6	B1
6.1	B2
7.3	B3
3.2	B4
8.3	B5
8.9	B6
4.9	B7
